Measurements reported in patent US20260125472A1 (HEFEI TG IMMUNOPHARMA, published 2026).

Key:
PDL1 protein = target: T1, PDL1 protein (UniProt Q9NZQ7 19-238); test: ELISA, coated PDL1 protein, OD450 [panel A]
T1 construct: Bought recombinant protein
Method: (3) PDL1 protein (purchased from Acro) was diluted to 2 μg/ml with PBS buffer, added to a 96-well plate at a volume of 100 μL/well, and placed at 4° C. overnight. The PBS buffer in the 96-well plate was aspirated, and the plate was washed 6 times with PBST (pH 7.2 PBS containing 0.10% Tween 20) buffer. Then, PBS/10% BSA was added at 200 μL/well and incubated at 37° C. for 2 h for blocking. The blocking solution was removed, and the plate was washed six times with PBST. Then, the to-be-tested bispecific antibodies serially diluted with PBST/0.05% BSA, Cross3×PDL1, Cross303×PDL1, Cross307×PDL1, Cross308×PDL1, Cross309×PDL1, Cross310×PDL1, Cross311×PDL1, Cross312×PDL1, Cross313×PDL1, Cross314×PDL1, Cross316×PDL1, Cross317×PDL1, Cross318×PDL1, Cross323×PDL1, Cross325×PDL1, Cross326×PDL1, and control IgG1LALA (purchased from Bio-Tech) were added at 100 μL/well, and incubated at 37° C. for 1 h. The reaction system was removed, and the plate was washed 6 times with PBST. Then, the cells were incubated at 37° C. for 1 h with HRP (horseradish peroxidase)-labeled anti-human secondary antibody (Fab specific) (purchased from Sigma) serially diluted with PBST/0.05% BSA at 100 μL/well. After the plate was washed six times with PBST, TMB (tetramethylbenzidine) was added at 80 μL/well and incubated at room temperature for 3 min. 4 M sulfuric acid was added at 80 μL/well to terminate the reaction. The absorbance was read at 450 nm using a microplate reader.

[1] = target: T2, PDL1 on A-375 melanoma cells, HCT-15 colorectal cancer cells and A549 lung cancer cells (UniProt Q9NZQ7 19-290, limits assumed); test: flow cytometry, A549 cells, MFI [panel B]
T2 construct: whole, on cells
T2 sequence (Q9NZQ7 19-290 limits assumed): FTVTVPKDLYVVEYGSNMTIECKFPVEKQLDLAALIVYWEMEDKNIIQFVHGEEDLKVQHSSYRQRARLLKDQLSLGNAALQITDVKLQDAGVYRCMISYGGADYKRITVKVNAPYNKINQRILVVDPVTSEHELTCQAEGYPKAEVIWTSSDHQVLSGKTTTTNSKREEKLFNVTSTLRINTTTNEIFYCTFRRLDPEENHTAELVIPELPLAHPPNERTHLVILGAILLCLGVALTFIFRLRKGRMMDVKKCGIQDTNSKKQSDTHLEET
Method: (2) The tumor cells were diluted to 2×10⁶/ml with PBS and added to a 1.5 ml EP tube at a volume of 100 μl/tube, and goat serum was added thereto at 10 μl/tube. The cells were blocked at 4° C. for 30 min. The serially diluted bispecific antibodies, Cross3×Trop2, Cross303×Trop2, Cross307×Trop2, Cross308×Trop2, Cross309×Trop2, Cross310×Trop2, Cross311×Trop2, Cross312×Trop2, Cross313×Trop2, Cross314×Trop2, Cross316×Trop2, Cross317×Trop2, Cross318×Trop2, Cross323×Trop2, Cross325×Trop2, Cross326×Trop2, and Cross3×PDL1, Cross303×PDL1, Cross307×PDL1, Cross308×PDL1, Cross309×PDL1, Cross310×PDL1, Cross311×PDL1, Cross312×PDL1, Cross313×PDL1, Cross314×PDL1, Cross316×PDL1, Cross317×PDL1, Cross318×PDL1, Cross323×PDL1, Cross325×PDL1, Cross326×PDL1, and control hIgG1LALA (purchased from Bio-Tech) were added and incubated at 4° C. for 30 min. 1 ml of PBS was added to the EP tube, followed by centrifugation at 3500 rpm for 5 min at 4° C. The supernatant was discarded, and the cells were washed again with PBS. After centrifugation, the supernatant was completely discarded, and the cells were resuspended with PBS at 100 μl/tube. Alexa-647-labeled goat anti-human IgG secondary antibody (purchased from Jackson lab) was added at 1 μl/tube and incubated at 4° C. in the dark for 30 min. The cells were washed twice with PBS, and the supernatant was completely discarded after centrifugation. The cells were resuspended with PBS at 200 μl/tube and assay was performed using the flow cytometry.

CD3E&D protein [2] = target: T3, CD3E&D protein (UniProt P04234 22-105); test: SPR (Biacore 8K), antibody on CM5 chip, CD3 E&D antigen as analyte; parameters: Fold change: reference not given here
T3 construct: Purchased from Acro; also called CD3 E&D antigens; CD3E&D antigen protein
T3 sequence (chain, as listed by the source limits assumed, chain 1 of 2): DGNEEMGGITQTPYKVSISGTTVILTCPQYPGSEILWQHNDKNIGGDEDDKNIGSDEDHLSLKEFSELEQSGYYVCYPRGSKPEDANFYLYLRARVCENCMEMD
T3 sequence (P04234 22-105 limits assumed, chain 2 of 2): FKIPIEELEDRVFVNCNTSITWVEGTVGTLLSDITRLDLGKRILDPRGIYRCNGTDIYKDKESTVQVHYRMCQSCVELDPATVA
Method: In a Biacore 8K (Cytiva) system, the antibody was diluted to 10 μg/mL in HBS-EP running buffer and coupled to a CM5 chip (Cytiva) at a flow rate of 10 μL/min.

CD3E&D protein [3] = target: T3, CD3E&D protein; test: ELISA, coated CD3E&D protein, OD450 [panel B]
Method: In this example, the binding properties of the parental antibody Cross3 and the CD3 affinity-reduced antibody (the production method and the amino acid sequences of the heavy and light chains were shown in Example 1) were detected by ELISA. The CD3E&D protein was coated onto a 96-well plate by the inventors, and the strength of the signal after the addition of the antibody was used to determine the binding properties of the antibody and CD3E&D.
CD3E&D protein (purchased from Acro) was diluted to 2 μg/ml with PBS buffer, added to a 96-well plate at a volume of 100 μL/well, and placed at 4° C. overnight. The PBS buffer in the 96-well plate was aspirated, and the plate was washed 6 times with PBST (pH 7.2 PBS containing 0.1% Tween 20) buffer. Then, 200 μL/well PBS/10% BSA was added and incubated at 37° C. for 2 h for blocking. The blocking solution was removed, and the plate was washed six times with PBST. Then, the to-be-tested antibodies serially diluted with PBST/0.05% BSA, Cross3, Cross303, Cross307, Cross308, Cross309, Cross310, Cross311, Cross312, Cross313, Cross314, Cross316, Cross317, Cross318, Cross323, Cross325, Cross326, and control IgG1 (purchased from Bio-Tech) were added at 100 μL/well, and incubated at 37° C. for 1 h. The reaction system was removed, and the plate was washed 6 times with PBST. Then, the cells were incubated at 37° C. for 1 h with HRP (horseradish peroxidase)-labeled anti-human secondary antibody (Fab specific) (purchased from Sigma) serially diluted with PBST/0.05% BSA at 100 μL/well. The plate was washed six times with PBST, TMB (tetramethylbenzidine) was added at 80 μL/well and incubated at room temperature for 3 min. 4 M sulfuric acid was added at 80 μL/well to terminate the reaction. The absorbance was read at 450 nm using a microplate reader.

T1 sequence (Q9NZQ7 19-238 limits assumed): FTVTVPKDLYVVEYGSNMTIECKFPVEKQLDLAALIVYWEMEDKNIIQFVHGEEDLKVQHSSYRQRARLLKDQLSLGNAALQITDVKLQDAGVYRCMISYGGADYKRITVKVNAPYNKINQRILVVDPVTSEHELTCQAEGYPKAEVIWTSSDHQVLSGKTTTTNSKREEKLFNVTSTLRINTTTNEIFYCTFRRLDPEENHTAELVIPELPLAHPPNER

Row | Binder | EC50 (read off the curve) (PDL1 protein) [µg/mL] | EC50 (read off the curve) [1] [µg/mL] | Fold change (CD3E&D protein [2]) | Kd (CD3E&D protein [2]) [nM] | koff (CD3E&D protein [2]) [s⁻¹] | kon (CD3E&D protein [2]) [M⁻¹ s⁻¹] | EC50 (read off the curve) (CD3E&D protein [3]) [µg/mL]
1 | Cross308×PDL1 (bispecific antibody, human IgG1, kappa, L234A L235A) scFv: not shown heavy: QVQLVQSGAEVKKPGASVKVSCKASGYSFTGYYMHWVRQAPGQGLEWIGRINPYNGATTYSQNFKDRATMTVDTSISTAYMELSRLRSDDTAVYYCVPTGMGYFLMDYWGQGTLVTVSSASTKGPSVFPLAPSSKSTSGGTAALGCLVKDYFPEPVTVSWNSGALTSGVHTFPAVLQSSGLYSLSSVVTVPSSSLGTQTYICNVNHKPSNTKVDKKVEPKSCDKTHTCPPCPAPEAAGGPSVFLFPPKPKDTLMISRTPEVTCVVVDVSHEDPEVKFNWYVDGVEVHNAKTKPREEQYNSTYRVVSVLTVLHQDWLNGKEYKCKVSNKALPAPIEKTISKAKGQPREPQVCTLPPSREEMTKNQVSLSCAVKGFYPSDIAVEWESNGQPENNYKTTPPVLDSDGSFFLVSKLTVDKSRWQQGNVFSCSVMHEALHNHYTQKSLSLSPGK light: DIQLTQSPSFLSASVGDRVTITCKASQDVGSAVVWYQQKPGKAPKLLIYWASTRHTGVPSRFSGSGSGTEFTLTISSLQPEDFATYFCQQFTSYPTFGQGTKLEIKRTVAAPSVFIFPPSDEQLKSGTASVVCLLNNFYPREAKVQWKVDNALQSGNSQESVTEQDSKDSTYSLSSTLTLSKADYEKHKVYACEVTHQGLSSPVTKSFNRGEC | ~0.2 | ~1 |  |  |  |  | 
2 | Cross311×PDL1 (bispecific antibody, human IgG1, kappa, L234A L235A) scFv: not shown heavy: QVQLVQSGAEVKKPGASVKVSCKASGYSFTGYYMHWVRQAPGQGLEWIGRINPYNGATTYSQNFKDRATMTVDTSISTAYMELSRLRSDDTAVYYCVPTGMGYFLMDYWGQGTLVTVSSASTKGPSVFPLAPSSKSTSGGTAALGCLVKDYFPEPVTVSWNSGALTSGVHTFPAVLQSSGLYSLSSVVTVPSSSLGTQTYICNVNHKPSNTKVDKKVEPKSCDKTHTCPPCPAPEAAGGPSVFLFPPKPKDTLMISRTPEVTCVVVDVSHEDPEVKFNWYVDGVEVHNAKTKPREEQYNSTYRVVSVLTVLHQDWLNGKEYKCKVSNKALPAPIEKTISKAKGQPREPQVCTLPPSREEMTKNQVSLSCAVKGFYPSDIAVEWESNGQPENNYKTTPPVLDSDGSFFLVSKLTVDKSRWQQGNVFSCSVMHEALHNHYTQKSLSLSPGK light: DIQLTQSPSFLSASVGDRVTITCKASQDVGSAVVWYQQKPGKAPKLLIYWASTRHTGVPSRFSGSGSGTEFTLTISSLQPEDFATYFCQQFTSYPTFGQGTKLEIKRTVAAPSVFIFPPSDEQLKSGTASVVCLLNNFYPREAKVQWKVDNALQSGNSQESVTEQDSKDSTYSLSSTLTLSKADYEKHKVYACEVTHQGLSSPVTKSFNRGEC | ~0.2 | ~1 |  |  |  |  | 
3 | Cross314×PDL1 (bispecific antibody, human IgG1, kappa, L234A L235A) scFv: not shown heavy: QVQLVQSGAEVKKPGASVKVSCKASGYSFTGYYMHWVRQAPGQGLEWIGRINPYNGATTYSQNFKDRATMTVDTSISTAYMELSRLRSDDTAVYYCVPTGMGYFLMDYWGQGTLVTVSSASTKGPSVFPLAPSSKSTSGGTAALGCLVKDYFPEPVTVSWNSGALTSGVHTFPAVLQSSGLYSLSSVVTVPSSSLGTQTYICNVNHKPSNTKVDKKVEPKSCDKTHTCPPCPAPEAAGGPSVFLFPPKPKDTLMISRTPEVTCVVVDVSHEDPEVKFNWYVDGVEVHNAKTKPREEQYNSTYRVVSVLTVLHQDWLNGKEYKCKVSNKALPAPIEKTISKAKGQPREPQVCTLPPSREEMTKNQVSLSCAVKGFYPSDIAVEWESNGQPENNYKTTPPVLDSDGSFFLVSKLTVDKSRWQQGNVFSCSVMHEALHNHYTQKSLSLSPGK light: DIQLTQSPSFLSASVGDRVTITCKASQDVGSAVVWYQQKPGKAPKLLIYWASTRHTGVPSRFSGSGSGTEFTLTISSLQPEDFATYFCQQFTSYPTFGQGTKLEIKRTVAAPSVFIFPPSDEQLKSGTASVVCLLNNFYPREAKVQWKVDNALQSGNSQESVTEQDSKDSTYSLSSTLTLSKADYEKHKVYACEVTHQGLSSPVTKSFNRGEC | ~0.2 | ~1 |  |  |  |  | 
4 | Cross312×PDL1 (bispecific antibody, human IgG1, kappa, L234A L235A) scFv: not shown heavy: QVQLVQSGAEVKKPGASVKVSCKASGYSFTGYYMHWVRQAPGQGLEWIGRINPYNGATTYSQNFKDRATMTVDTSISTAYMELSRLRSDDTAVYYCVPTGMGYFLMDYWGQGTLVTVSSASTKGPSVFPLAPSSKSTSGGTAALGCLVKDYFPEPVTVSWNSGALTSGVHTFPAVLQSSGLYSLSSVVTVPSSSLGTQTYICNVNHKPSNTKVDKKVEPKSCDKTHTCPPCPAPEAAGGPSVFLFPPKPKDTLMISRTPEVTCVVVDVSHEDPEVKFNWYVDGVEVHNAKTKPREEQYNSTYRVVSVLTVLHQDWLNGKEYKCKVSNKALPAPIEKTISKAKGQPREPQVCTLPPSREEMTKNQVSLSCAVKGFYPSDIAVEWESNGQPENNYKTTPPVLDSDGSFFLVSKLTVDKSRWQQGNVFSCSVMHEALHNHYTQKSLSLSPGK light: DIQLTQSPSFLSASVGDRVTITCKASQDVGSAVVWYQQKPGKAPKLLIYWASTRHTGVPSRFSGSGSGTEFTLTISSLQPEDFATYFCQQFTSYPTFGQGTKLEIKRTVAAPSVFIFPPSDEQLKSGTASVVCLLNNFYPREAKVQWKVDNALQSGNSQESVTEQDSKDSTYSLSSTLTLSKADYEKHKVYACEVTHQGLSSPVTKSFNRGEC | ~0.2 | ~2 |  |  |  |  | 
5 | Cross318 (antibody, human IgG1, kappa, V domains shown) VH: EVQLLESGGGLVQPGGSLKLSCAASGFTFNTYAMNWVRQAPGKGLEWVARIRSKYNNYATYYADSVKDRFTISRDDSKNTAYLQMNNLKTEDTAVYYCVRHGNFGNSYVSWFAMWGQGTLVTVSS VL: ELVVTQEPSLTVSPGGTVTLTCRSSTGAVTTSNYANWVQQKPGQAPRGLIGGTNKRAPGTPARFSGSLLGGKAALTLSGVQPEDEAEYYCALWYSNLWVFGGGTKLTVLR |  |  | 20.1 | 3.32 | 0.0056 | 1.69e+06 | ~0.03
